We go through 41 sequences from the nanobody polyreactivity screen of Harvey et al. (2022).

This data set in a line: yeast display, Sf9 membrane polyspecificity reagent, FACS + sequencing; frameworks hold sequencing errors. The gist of the method: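 A synthetic nanobody library was expressed on Saccharomyces cerevisiae BJ5465 by galactose induction for 36–48 hours. The library was stained for 1 hour at 4 °C with 10% biotinylated, detergent-solubilized Sf9 membrane reagent and enriched with streptavidin microbeads before FACS. Low and high (top ~1%) gates were set on anti-HA fluorescence for expression and streptavidin fluorescence for reagent binding, and each polyreactivity label reflects the gate of origin.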
In the case of “QVHLVESGGGLVQAGGSLRLSCSAYGSIFAYYAMGWYRQAPGKERELVAAIRSSGGSTYYADSVKGRFTISRDNANNTVYLQMNSLKPEVTAVYYCNVASRRIGPYVYWGQGTQVTVSS”, the “polyreactivity (PSR sort gate)” value is “high polyreactivity”.

Turning to “QVQLEESGGALVQAGGSLRLSGAASVSTFAYYAMGWYRQAPGKERELVAAISWSGGSTYYADSVKGRFTISRDNAKNTVYLLMNSLKPEDTAVYYCNKRNVLDYDYWGQGTQVTVSS”, the “polyreactivity (PSR sort gate)” value is recorded as “low polyreactivity”.

Turning to “QVQLVESGGGLVQAGGSLRLSCAASGSTFRRYAMGWYRQAPGKERELVAGISKRGVSTYYADSVKGRFTISRDNAKNTVYLQMNSLKPEDTAVYYCAAEWTVSKYDYWGQGTQVTVSS”, the “polyreactivity (PSR sort gate)” value is on record as “low polyreactivity”.

As to “QVQLVESGGGLVQAGGSLRLSCAASGRIFGYYAMGWYRQAPGKERELVAAINSGSRTYYADSVKGRFTISRDNAKNTVYLQMISLKAEDTAVYDCAASVRYPPYRSSDGQRGGYWGQGTEVTVSS”, the “polyreactivity (PSR sort gate)” value is on record as “high polyreactivity”.

On to “QVQLVESGGGLVQAGGSLRLSCAASGRTFSYYAMGWYRQAPGKERELVAAISSGGSTNYADSVKGRFTISRDNAKNTVYLQMNSLKPEDPAFYYCANSSIWGSGRVRWVTYYFWGQGTQVTVSS”, for which the “polyreactivity (PSR sort gate)” value is recorded as “low polyreactivity”.

“QVQPQESGVGLVQAGGSLRLSCAASGTIFAFQTMGWYRQAPGKERELVASITYGSSTNYADSVKGRFTISRDNAKNTVYLLMNRLKPEDTAVYYCAVPQAQYYYDYWGQGTQVTVSS”: the “polyreactivity (PSR sort gate)” value was “high polyreactivity”.

Take “QVQLVESGGGLVQAGGCLRLSCAASGSIFDHYVMGWYREAPGKERELVAAISSGDRPNYADSVKGRFTISRDNAKNPVYLQMNSLKPEETAVYYCAAVVHVSPYSYDYWGQGTQVTVSA”: the “polyreactivity (PSR sort gate)” value is given as “low polyreactivity”.

Regarding “QVQLVESGGGLVQAGGSLRLSCAASGSIFDRNAMGWYRQAPGKERELVSAINSNGGITYYADSVKGRFTISRDNAKNTVYLQMNSLKPEDTAVYYCAAVIRVVYREDHCGQGTQVTVSS”, the “polyreactivity (PSR sort gate)” value is reported as “low polyreactivity”.

In the case of “QVQLVESGGGLVQAGGSLRLSCAASGRTFLVYALGWYRQAPGKERELVAGITSGGGTYYADSVKGRFTISRDNAMNTVYLQINSLKPEETAVYYCAKYRWYGVYWGQVTQVTVSS”, the “polyreactivity (PSR sort gate)” value is listed as “low polyreactivity”.

Consider “QVQLVESGGGLVQAGGSLRLSCAASGSIFRRYAMGWYRQEPGKEMEFVAAITGSGGRTYYADSVKGRITISRDNAKNTVYLQMNSLKPEDTAVYYCAARRRDRVTYYYWGQGTQVTVSS”, for which the “polyreactivity (PSR sort gate)” value is “high polyreactivity”.

“QVQLVESGGGLVQAGGSLRLSCAASGSIFGLYAMGWYRQAPGKERELVAAISSRGSSTYYADSVKGRFTISRDNAKNTVYIQMNSLKPEDTAVYYCNAYPFSRSVQLRDYWGQGTQVTVSS”: the “polyreactivity (PSR sort gate)” value was “low polyreactivity”.

On to “QVQLVESGGGLVQAGGSLRLSCAASGIIFASNARGWYIQAPGKERELVASINRRGSSTYYADSVKGRFTISRDNAKNTVYLQMNSLKPEDTAVYYCAARAFNSGLGYTRYDYWGQGTQVTVSS”, for which the “polyreactivity (PSR sort gate)” value was “high polyreactivity”.

As to “QVQLVESGGGIVQAGGSLRLSCAASGFTFDYNTMGWYRQAPGKERELVAAISWSGGSTYYADSVKGRFTISRDNAKNTVYLQMNSLKPEDTAVYYCAAAWSYRYELYYCGQGTQVTVSS”, the “polyreactivity (PSR sort gate)” value was “low polyreactivity”.

Regarding “QVQLVESGGGLVQAAGSRRLSCDASGRIFGWYAMGWSRQAPGKERELVAAITNSGGSPYCADSVKGRFTISRDNAKNTVYLERKSLIPEDTAVYYCARSFSFYGKRKYDYWGQGTQVTVSS”, the “polyreactivity (PSR sort gate)” value is given as “high polyreactivity”.

Consider “QVQLVESGGGLVQAGGSLRLSCAASGRIFPAYAMGWYRQAPGKERELVAAITGGGSTNYADSVKGRFTISRDNAKHTVYLQMNSLKPEDTAVYYCNAAVVWPNRQENDYWGQGTQVTVSS”, for which the “polyreactivity (PSR sort gate)” value was “low polyreactivity”.

“QVQLVESGGGLVQAGGSLRLSCAASGFIFYYYAMGWYRQAPGKEREFVAGISRSGGSTYYADSVKGRFTISRDNAKNTVYLQMNSLKPEDTAVYYCGEFWTYWGYGQYDYWGQGTQVTVSS”: the “polyreactivity (PSR sort gate)” value is given as “low polyreactivity”.

On to “QVQLVESGGGLVQAGGSLRLSCAASGFTAVGNAMGWYRPAPGKERELVASITNGGSTNYADSVKGRFTISRDNAKNTVYIQMNSLKPEDTAVYYCATDTYFDYTGALSHSGYYYWGQGTQVTVSS”, for which the “polyreactivity (PSR sort gate)” value is “low polyreactivity”.

As to “QVQLVESGGGLVQAGGSLRLSCAASGFTFGPNTMGWYRPAPGKERELVAAISARGGRTYYADSVKGRFTISRDNAKNTVYLQMNSLKPEDTAVYYCAAPGYVRTGVTYGGYYWGQGTQVTVSS”, the “polyreactivity (PSR sort gate)” value was “high polyreactivity”.

With “QVQLVESGGGLVQAGGSLRLSCAASGSTFHAYAMGWYRQAPGKEREMVAAISWRGGSTYYADSVKGRFTISRDNAKNTVYLQMNSLKPEDTAVYYCAASVQGLFGTSGLEGVDYWGQGTQVTVSS”, the “polyreactivity (PSR sort gate)” value was “high polyreactivity”.

As to “QVQLVESGGGLVQAGGSLRLSCAATGTTFHYYAMGWYRQAPGKERELVASITRSGGRTYYADSVKGRFTISRDNAKNTVYLQMNSLKPEDTAVYYCAARSYRRTSYDYPSNPNYEYYYWGQGTQVTVSS”, the “polyreactivity (PSR sort gate)” value is “high polyreactivity”.

As to “QVQLVESGGGLVQAGGSLRLSCAASGRTIIYYGMGWYRQAPGKERELVAAISLRGSSTRYADSVKGRFTISRDNAKNTVYLQMNSLKPEDTAVYYCAARPRLSRYDYWGQGTQVTVSS”, the “polyreactivity (PSR sort gate)” value is on record as “high polyreactivity”.

As for “QVQLVESGGGLVQAGGSLRLSCAASGRTFLGYSMGWYRQAPAKERELVAAISGSCDRTYYADSVKGRFTISRDNAKHTVYLQMYSLKPEYTEVYYCNAVTVRYYASYYGRGMDYWGQGTQETVSS”, the “polyreactivity (PSR sort gate)” value is recorded as “high polyreactivity”.

Regarding “QVQLVETGAGIVQAGGILRLSCAASGSIFQGNAIGWYRQAPGKERELVAAISGGTSTYYADSEKGRFTISRDNAKNTVYLEMNSLKPEDTAVYYCAARFYGHPYWYDYWGLGTQVTVSS”, the “polyreactivity (PSR sort gate)” value is on record as “low polyreactivity”.

Turning to “QVQLVESGGGLVQAGGSLRLSCAASGFIFTKYTMAWYRQAPGKERELVAAITGRGTSTSADSVKGRFTISRDNAKNTVYLQMNSLKPEDTAVYYCAAVGWFADFLFSDINGYYWGQGTQVTVSS”, the “polyreactivity (PSR sort gate)” value is given as “low polyreactivity”.

Regarding “QVQLVESGGGLVQAGGSLRLSCAASGFTFTYYAMGWYRQAPGKERELVAAISWSGDSTYYADSVKGRFTISRDNAKNTVYLQMNSLKPEDTAVYYCATEYSHTYDYWGQGTQVTVSS”, the “polyreactivity (PSR sort gate)” value is listed as “low polyreactivity”.

For the sequence “QVQLVESGGGLVQAGGSLRLSCAASGSTFQANTMGWYRQAPGKERELVAAISIRGANTYYADSVKGRFTISRDNAKNTVYLQMNSLKPEDTAVYYCATRVRKYSLRLDYWGQGTQVTVSS”, the “polyreactivity (PSR sort gate)” value is “high polyreactivity”.

“QVQLVESGGGLVQAGGSLRLSCDASGSIFKLNAMGWYRQAPGKERELVAAITSSGDSTYYADSVKGRFTISRDNAKNTVYLQMNSLKPEDTAVFYCNREDAGIMDYWGQGTHVTVSS”: the “polyreactivity (PSR sort gate)” value is on record as “low polyreactivity”.

In the case of “QVQLVESGGGLVQAGGSLRLSCAASGLTFYHYAMGWYRQAPGKERELVADISSGGSTSYADSVKGRFTISRDNAKNTVYLQMNSLKPEDTAVFYCAADYTWERYHRQIFRLDYWGQGTQVTVSS”, the “polyreactivity (PSR sort gate)” value was “low polyreactivity”.

As for “QVQLVESGGGLVQAGGSLRISCAASGSIFPRYAMGWYRQAPGTERELVATISASGTDTYYADSVKGRFTISRDNAKNTVYLQMNSLKPEDTAVYYCAAGGYPGGEDYWGQGTQVTVSS”, the “polyreactivity (PSR sort gate)” value is reported as “low polyreactivity”.

As to “QVQLVESGGGLVQAGGSLRLSCAASGSIFSTNAIGGYRQAPGTQRELVAVITGIGGITYYADSVKGRFTISRDNAKKTVYLQRNSLKPDDTAVYYCADDPISEFSWGVKDRYDYWGQGTQVTVSS”, the “polyreactivity (PSR sort gate)” value was “low polyreactivity”.

With “QVQLVESGGGLVQAGGSLRLSCAASGIIFHFNEMGWYRQAPGKERELVAAITSGGSTNYADSVKGRFTISRDNAKNTVYLQMNSLKPEDTAVYYCAARRGLRLFAYRHGYWGQGTQVTVSS”, the “polyreactivity (PSR sort gate)” value was “low polyreactivity”.

In the case of “QVQLVESGGGLVQAGGSLRLSCAASARTLAHYTMGWYRQAPGKERELVAAITFSGGRTYYADSVKGRFTISRDTAKNTVYLQMNSLKPEDTAVYYCNADGYWVVPLDDSYEYWGQGTQVTVSS”, the “polyreactivity (PSR sort gate)” value was “low polyreactivity”.

On to “QVQLVESGGGLVQAGGSLRLSCAASGRIFTYNAMGWYRQAPGKERELVAAITYRGSSTYYADSVKGRFTISRDNAKNTVYLQMNSLKPEDTAVYYCAAPRLIRFVTYYSWGQGTQVTVSS”, for which the “polyreactivity (PSR sort gate)” value is reported as “high polyreactivity”.

As for “QVQLVESGGGLVQAGGSLRLSCAASGINFGKYAMGWYRQAPGKERELVAAITSGDSTYYADSVKGRFTISRDNAKNTVYLQMNSLKPEDTAVYYCNADAWRSQSWWHGLMEYWGQGTQVTVSS”, the “polyreactivity (PSR sort gate)” value is listed as “low polyreactivity”.

For “QVQLVESGGGLVQAGGSLRLSCAASGFIFLSYAMGWYRPAPGKERELVAAISGRGGSTYYADSVKGRFTISRDNAKNTVYLQMNSLKPEDTAVYYCAARLYRYNYDYWGQGTQVTVSS”, the “polyreactivity (PSR sort gate)” value is “high polyreactivity”.

As for “QVQLVESGGGLVQAGGSLRLSCAASGSTVSNYAMGWYRQAPGKERELVASISNGGSTNDADSVKGRFTISRANAKNTGYLQMNSLKPEDTAVYYCNAESKAKYDYWGQGTQVTLSS”, the “polyreactivity (PSR sort gate)” value is “low polyreactivity”.

As to “QVQLVESGGGLVQAGGSLRLSCAASGRIFLTYAMGWYRQAPGKERELVAAITDNGGDTYYADSVKGRFTISRDNAKNTVYLQMNSLKPEDTAVYYCAKTTLSVAGLDFDYWGQGTQVTVSS”, the “polyreactivity (PSR sort gate)” value is given as “low polyreactivity”.

For the sequence “QVQLVESGGGLVQAGGSLRLSCAASGSILRSNAMGWYRQAPGKERELVAAITFNGGSTYADSVKGRFTISRDNAKNTVYLQMNSLKPEDTAVYYCATGDGPSLFDYWGQGTQVTVSS”, the “polyreactivity (PSR sort gate)” value is “low polyreactivity”.

In the case of “QVQLVESGGGLVQAGGSLRLSCAASGRIFGQNAMGWYRQAPGKERELVASITTSGSSTNYADSVKGRFTISRDNAKNTVYLQMNSLKPEDTAVYYCAADYVSPDPDELHDYSGYYYWGQGTQVTVSS”, the “polyreactivity (PSR sort gate)” value was “high polyreactivity”.

For the sequence “QVQLVESGGGLVQAGGSLRLSCAATGSTFAHNSMGWYRQAPGKESQFVAAISARGGMTYYADSVKGRFTISRDYAKNTVYLQMNSLKPEDTAVYYCAAVFGDYWSSQWSYAYGYWGQGTQVTVSS”, the “polyreactivity (PSR sort gate)” value is “high polyreactivity”.

Turning to “QVQLVESGGGLVQAGGSLRLSCAASGRIFRYYAMGWYRQAPGKERELVAAIRSGGSTNYADSVKGRFTISRDNATNTVYLQLNSLKPEDTAVYYCNARYRYFKGGYWGQGTQVTVAS”, the “polyreactivity (PSR sort gate)” value is recorded as “high polyreactivity”.
